Laboratory results: patent US20080145339, “Adeno-associated virus AAV Rep78 major regulatory protein mutants thereof and uses thereof” (University of Arkansas, published 2008)

Target: T1, AAV Rep78 wild-type (adeno-associated virus 2, UniProt Q89268 SEQ:1-621)
T1 sequence: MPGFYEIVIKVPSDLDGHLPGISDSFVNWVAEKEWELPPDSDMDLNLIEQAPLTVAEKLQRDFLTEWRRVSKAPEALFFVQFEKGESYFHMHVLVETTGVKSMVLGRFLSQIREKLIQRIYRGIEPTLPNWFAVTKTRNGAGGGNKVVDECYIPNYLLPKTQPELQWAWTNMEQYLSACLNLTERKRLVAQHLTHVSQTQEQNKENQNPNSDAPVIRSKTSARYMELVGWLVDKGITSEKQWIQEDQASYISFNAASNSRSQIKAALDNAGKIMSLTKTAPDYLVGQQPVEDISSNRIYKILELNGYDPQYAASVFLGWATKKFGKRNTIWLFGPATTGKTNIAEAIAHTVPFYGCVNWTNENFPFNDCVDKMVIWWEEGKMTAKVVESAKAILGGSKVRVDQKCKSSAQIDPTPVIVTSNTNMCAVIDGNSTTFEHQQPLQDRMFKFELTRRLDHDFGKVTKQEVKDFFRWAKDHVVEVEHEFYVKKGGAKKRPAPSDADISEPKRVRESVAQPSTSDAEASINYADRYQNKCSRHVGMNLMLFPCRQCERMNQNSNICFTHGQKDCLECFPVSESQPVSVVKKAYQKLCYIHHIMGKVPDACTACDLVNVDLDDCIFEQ
Assay: EMSA; minus strand strongly recognized
Details: tags: MBP fusion (pMALc2, amylose purified); label: 32P

B1: HPV-16 p97 minus strand nt 14-106 (ssDNA)
DNA: CATTGCAGTTCTCTTTTGGTGCATAAAATGTCTGCTTTTATACTAACCGGTTTCGGTTCAACCGATTTCGGTTACGCCCTTAGTTTTATACAT
modifications: [NONE]
binding result: binds
